Measured values reported in patent US20210002644, “ANTI-CHYMASE APTAMER AND USE FOR SAME” (RIBOMIC INC., published 2021).

T1: chymase (native, human skin mast cell) (Homo sapiens, UniProt P23946 P23946:22-247)
T1 sequence: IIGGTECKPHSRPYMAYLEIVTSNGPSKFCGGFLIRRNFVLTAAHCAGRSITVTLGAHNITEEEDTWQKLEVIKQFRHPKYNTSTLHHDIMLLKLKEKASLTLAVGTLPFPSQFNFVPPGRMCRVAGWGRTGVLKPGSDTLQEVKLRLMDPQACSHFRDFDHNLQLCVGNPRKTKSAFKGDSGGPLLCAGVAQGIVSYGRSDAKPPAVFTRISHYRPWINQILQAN

B1: SEQ ID NO: 9 (ssRNA)
RNA: GGGAACGAAGCGACAGACGUUCCAGCGUCUAAUACGUGAAUAACCUGAUCGUAGGGGGUUCAAGUACUGAGGACAGA
modifications: 2'-F pyrimidines (U, C); purines 2'-OH
B2: SEQ ID NO: 33(18) (mixed)
RNA: AUGAUCGGACAUAACUAAUUAGGGGUGUCAA
modifications: PEG-A(M)U(M)G(M)A(M)U(F)C(F)G(M)G(M)A(M)C(M)A(M)U(M)AAC(M)U(F)A(M)A(M)U(M)TA(M)G(M)GG(M)G(M)TG(M)U(M)C(M)A(M)A(M)-idT (F=2'-F, M=2'-OMe, PEG=40 kDa branched PEG)

Assays:
[1] = target: T1, chymase (native, human skin mast cell); test: inhibition; angiotensin I substrate, 37 C, 1.8 mM Ca, 0.8 mM Mg, pH 7.6; details: tags: Calbiochem Human Skin
Procedure: Whether the nucleic acids shown by SEQ ID NO: 9 and 10 inhibit the enzyme activity of chymase was determined by the following method. Angiotensin I is converted by chymase to angiotensin II, during which a peptide fragment His-Leu is released. Since the peptide His-Leu is fluorescently derivatized by o-phthalaldehyde, its fluorescence intensity can be quantitatively measured.
(§1) The total volume of solution for an enzyme reaction in the assay was set to 50 μL, and the reaction was performed in solution C buffer. At first, native (manufactured by Calbiochem) was diluted with solution C to give 5 μL thereof. Here, the native is chymase purified from human skin mast cell. […] The whole mixture was centrifuged at 4° C., 14000 rpm for 10 min, and the supernatant (30 μL) was used for the next fluorescence induction reaction.
(§2) The above-mentioned supernatant (30 μL) was added to a 96 well plate (black, manufactured by Costar), a solution (15 μL) of 2% o-phthalaldehyde (manufactured by SIGMA) in methanol and 0.3M NaOH solution (170 μL) were added to each well, and the mixture was incubated at room temperature for 10 min. […] The plate was set on a microplate reader SpectraMax190 (manufactured by Molecular device) and the fluorescence intensity was measured at an excitation wavelength of 355 nm and a fluorescence wavelength of 460 nm.

[2] = target: T1, chymase (native, human skin mast cell); test: inhibition; angiotensin I substrate; 40 kDa PEG; details: tags: Calbiochem Human Skin
Procedure: as §1, with “cell. The nucleic acid was serially diluted with solution C at a concentration of 0.0027-2 μM to give 25 μL thereof. The chymase solution (5 μL) and the nucleic acid solution (25 μL) were mixed, and the mixture was incubated at 37° C. for 5 min. On the other hand, […] angiotensin I (manufactured by PEPTIDE […], INC.) was prepared in solution C to give 20 μL thereof, which was incubated at 37° C. for 5 min.” for “cell.”
as §2, with “nm. […]” for “nm.”

Row | Binder | IC50 [1] | IC50 [2]
1 | B1 | 0.22 nM | 
2 | B2 |  | 0.109 nM
